Data on two molecules can be found in US20200246441A1, “COMPOSITIONS AND METHODS FOR AUTOIMMUNE DISEASE TREATMENT” (AMRITA VISHWA VIDYAPEETHAM, priority 2016, published 2020).

In assay [1] the test system is EAE. The following applies: administered as free peptide; cited from earlier work.
Assay [2] concerns C57Bl/6 EAE mice. Briefly: EAE induction and clinical scoring, MOG35-55-induced EAE in C57Bl/6 mice (chronic progressive model). Type of assay: in vivo, mouse. The following applies: for Disease incidence / Mortality: fraction of total; for Cumulative score / Day disease onset / Maximum score / Score at termination: mean ± SEM.
The test system of assay [3] is C57Bl/6 EAE mice. Description: Histological analysis of CNS tissue of C57Bl/6 EAE mice. Format: in vivo, mouse. More on the design: key to Axonal damage: 0 = no axonal pathology, 3 = severe axonal pathology; key to Demyelination score: 0 = no demyelination, 3 = severe demyelination. The following applies: mean ± SEM. On the procedure: (§1) For histological analysis of CNS tissue, the brain and spinal cord were dissected from mice then fixed in 10% formalin (Sigma) for 24-48 h. Tissue was then processed and embedded in paraffin wax. Serial sections (5 μm) were cut from paraffin-embedded tissues and stained with hematoxylin and eosin, luxol fast blue and Bielschowsky silver impregnation to assess inflammation, demyelination and axonal damage, respectively. Sections were scored blind for semi-quantitative histological analysis of inflammation as follows: 0, no inflammation: 1, cellular infiltrate only in the perivascular areas and meninges; 2, mild cellular infiltrate in parenchyma: 3, moderate cellular infiltrate in parenchyma; 4, severe cellular infiltrate in parenchyma. Demyelination and axonal pathology were assessed by pale staining and scored blind as follows: 0, no demyelination/axonal pathology: 1, mild demyelination/axonal pathology; 2, moderate demyelination-axonal pathology; 3, severe demyelination/axonal pathology.

The test system of assay [4] is NOD/Lt EAE mice. Description: EAE induction and clinical scoring, recombinant mouse MOG-induced EAE in NOD/Lt mice (relapsing remitting model). Format: in vivo. The following applies: 200 nm silica peptide nanoparticles, NOD/Lt.
Assay [5] deals with NOD/Lt EAE mice. Description: Histological analysis of CNS tissue of NOD/Lt EAE mice. Set-up: key to Axonal damage: 0 = no axonal pathology, 3 = severe axonal pathology; key to Demyelination score: 0 = no demyelination, 3 = severe demyelination. The following applies: 200 nm silica peptide nanoparticles, mean ± SEM. Type of assay: in vivo, mouse. On the procedure: as §1
Assay [6] has as its system MOG-specific T-cells (spleen cells from MOG T-cell receptor transgenic (2D2) mice). Description: Proliferation assay, 3H-thymidine incorporation. Type of assay: cell-based, mouse. The following applies: free peptide or 500 nm silica NPs, up to 8 ug/ml. On the procedure:
Spleens were dissected from MOG T-cell receptor transgenic mice expressing the transgenic V3.2α/Vβ11 T-cell receptor specific for MOG35-55 peptide ([…]) in the context of 1-A^b. Single cell suspensions were prepared in complete RPMI medium containing 10% heat inactivated FBS, 2 mM L-glutamine, 100 U/ml penicillin, 100 μg/ml streptomycin, 50 μM 2-mercaptoethanol and 1 mM sodium pyruvate (Sigma). Following red blood cell lysis, splenocytes were seeded in triplicate in 96-well, flat bottom microtiter plates (Nunc) at a concentration of 2.5×10^5 cells per well. Splenocytes were cultured in medium alone or in the presence of increasing doses of MOG35-55 or nanoparticles. Cells were incubated at 37° C. for 72 hr with the addition of 1 μCi/well [3H]-thymidine (Perkin Elmer) for the last 18 hr of culture. Cells were harvested onto filter mats (Perkin Elmer) and incorporated radioactive nucleic acids counted using a Top Count NXT Scintillation Counter (Packard Biosciences).
(In general: Uptake of a labelled nucleoside into DNA is a usual measure of proliferation.)

[7] abbreviates: 200 nm silica peptide nanoparticles.
The mark [8] stands for this setting: 500 nm silica peptide nanoparticles.

As to VGWYRSPβFSRVVHLYR [MOG 44βF], the “dosage at which free peptide suppressed EAE” value in assay [1] is 800 µg.

B1: Ova: control silica nanoparticles (500 nm or 200 nm) coated with ovalbumin (conjugate)
chain: GSIGAASMEFCFDVFKELKVHHANENIFYCPIAIMSALAMVYLGAKDSTRTQINKVVRFDKLPGFGDSIEAQCGTSVNVHSSLRDILNQITKPNDVYSFSLASRLYAEERYPILPEYLQCVKELYRGGLEPINFQTAADQARELINSWVESQTNGIIRNVLQPSSVDSQTAMVLVNAIVFKGLWEKAFKDEDTQAMPFRVTEQESKPVQMMYQIGLFRVASMASEKMKILELPFASGTMSMLVLLPDEVSGLEQLESIINFEKLTEWTSSNVMEERKIKVYLPRMKMEEKYNLTSVLMAMGITDVFSSSANLSGISSAESLKISQAVHAAHAEINEAGREVVGSAEAGVDAASVSEEFRADHPFLFCIKHIATNAVLFFGRCVSP
In the case of B1, in assay [2] (setting [7]), the Disease incidence is given as 5/5, the Mortality is on record as 0/5, the Cumulative score is on record as 62.00 ± 4.987 and the Day disease onset turned out to be 10.60 ± 0.9274. In assay [2] (setting [7]), this molecule displayed a Maximum score of 3.3 ± 0.2000 and a Score at termination of 2.60 ± 0.3317. In assay [2] (500 nm silica peptide nanoparticles, i.v. day -7 and -1), the Disease incidence is listed as 4/4. In addition, in assay [2] (setting [8]), the Mortality is 1/4, the Cumulative score is listed as 69.38 ± 11.77, the Day disease onset amounted to 10.75 ± 0.8539 and the Maximum score came out at 3.625 ± 0.4732. This molecule had a Score at termination in assay [2] (setting [8]) of 2.75 ± 0.7773. In assay [3] (setting [7]), this molecule returned an Axonal damage of 2.50 ± 0.2236, a Demyelination score of 2.40 ± 0.3674 and an Inflammation score of 2.80 ± 0.4899. Further, in assay [3] (setting [8]), the Axonal damage came out at 2.333 ± 0.1667, the Demyelination score worked out at 2.333 ± 0.1667 and the Inflammation score was found to be 2.833 ± 0.1667. Further, in assay [4] (fraction of total), the Disease incidence is reported as 6/6 and the Mortality is 1/6. Further, in assay [4] (mean ± SEM), the Cumulative score stood at 46.75 ± 4.656, the Day disease onset is 14.17 ± 1.327, the Maximum score was found to be 3.583 ± 0.3005 and the Score at termination is listed as 3.167 ± 0.4014. In assay [5], this molecule registered an Axonal damage of 2.60 ± 0.1871, a Demyelination score of 2.60 ± 0.1871 and an Inflammation score of 4.00 ± 0.00. The “T-cell proliferation (proliferative response)” value in assay [6] is given as “not capable of stimulating T-cell proliferation”.
